Experimental data published in publication PMC11563578 (eLife, 2024).

B1: RNA polymerase II subunit Rpb7 (natural protein, S. cerevisiae, UniProt P34087 1-171, looked up)
chain: MFFIKDLSLNITLHPSFFGPRMKQYLKTKLLEEVEGSCTGKFGYILCVLDYDNIDIQRGRILPTDGSAEFNVKYRAVVFKPFKGEVVDGTVVSCSQHGFEVQVGPMKVFVTKHLMPQDLTFNAGSNPPSYQSSEDVITIKSRIRVKIEGCISQVSSIHAIGSIKEDYLGAI
notes: Rpb7, subunit of yeast RNA polymerase II; also called Rbp7; source: endogenous, S. cerevisiae; sub-stoichiometric from the Δrpb4 RPB2-HFH strain
B2: RNA polymerase II subunit Rpb9 (natural protein, S. cerevisiae, UniProt P27999 1-122, looked up)
chain: MTTFRFCRDCNNMLYPREDKENNRLLFECRTCSYVEEAGSPLVYRHELITNIGETAGVVQDIGSDPTLPRSDRECPKCHSRENVFFQSQQRRKDTSMVLFFVCLSCSHIFTSDQKNKRTQFS
notes: Rpb9, subunit of yeast RNA polymerase II; source: endogenous, S. cerevisiae; also the Δrpb4 RPB2-HFH strain

Biological target: T1, RNA polymerase II subunit Rpb1 (S. cerevisiae, UniProt P04050 1-1733)
T1 construct: Rpb1, largest subunit of yeast RNA polymerase II; source: endogenous, S. cerevisiae; also the Δrpb4 RPB2-HFH strain
Assay: cross-linking; affinity-purified holo-pol II and ΔRpb4 pol II cross-linked with C1q2/C2q2 Q2linkers in a crosslinker swapping experiment (experiments I and II), pooled, MS; crosslinks identified with pLink2 and Nexus against the 12 pol II subunits
Conditions: both partners purified

T1 sequence (P04050 whole entry): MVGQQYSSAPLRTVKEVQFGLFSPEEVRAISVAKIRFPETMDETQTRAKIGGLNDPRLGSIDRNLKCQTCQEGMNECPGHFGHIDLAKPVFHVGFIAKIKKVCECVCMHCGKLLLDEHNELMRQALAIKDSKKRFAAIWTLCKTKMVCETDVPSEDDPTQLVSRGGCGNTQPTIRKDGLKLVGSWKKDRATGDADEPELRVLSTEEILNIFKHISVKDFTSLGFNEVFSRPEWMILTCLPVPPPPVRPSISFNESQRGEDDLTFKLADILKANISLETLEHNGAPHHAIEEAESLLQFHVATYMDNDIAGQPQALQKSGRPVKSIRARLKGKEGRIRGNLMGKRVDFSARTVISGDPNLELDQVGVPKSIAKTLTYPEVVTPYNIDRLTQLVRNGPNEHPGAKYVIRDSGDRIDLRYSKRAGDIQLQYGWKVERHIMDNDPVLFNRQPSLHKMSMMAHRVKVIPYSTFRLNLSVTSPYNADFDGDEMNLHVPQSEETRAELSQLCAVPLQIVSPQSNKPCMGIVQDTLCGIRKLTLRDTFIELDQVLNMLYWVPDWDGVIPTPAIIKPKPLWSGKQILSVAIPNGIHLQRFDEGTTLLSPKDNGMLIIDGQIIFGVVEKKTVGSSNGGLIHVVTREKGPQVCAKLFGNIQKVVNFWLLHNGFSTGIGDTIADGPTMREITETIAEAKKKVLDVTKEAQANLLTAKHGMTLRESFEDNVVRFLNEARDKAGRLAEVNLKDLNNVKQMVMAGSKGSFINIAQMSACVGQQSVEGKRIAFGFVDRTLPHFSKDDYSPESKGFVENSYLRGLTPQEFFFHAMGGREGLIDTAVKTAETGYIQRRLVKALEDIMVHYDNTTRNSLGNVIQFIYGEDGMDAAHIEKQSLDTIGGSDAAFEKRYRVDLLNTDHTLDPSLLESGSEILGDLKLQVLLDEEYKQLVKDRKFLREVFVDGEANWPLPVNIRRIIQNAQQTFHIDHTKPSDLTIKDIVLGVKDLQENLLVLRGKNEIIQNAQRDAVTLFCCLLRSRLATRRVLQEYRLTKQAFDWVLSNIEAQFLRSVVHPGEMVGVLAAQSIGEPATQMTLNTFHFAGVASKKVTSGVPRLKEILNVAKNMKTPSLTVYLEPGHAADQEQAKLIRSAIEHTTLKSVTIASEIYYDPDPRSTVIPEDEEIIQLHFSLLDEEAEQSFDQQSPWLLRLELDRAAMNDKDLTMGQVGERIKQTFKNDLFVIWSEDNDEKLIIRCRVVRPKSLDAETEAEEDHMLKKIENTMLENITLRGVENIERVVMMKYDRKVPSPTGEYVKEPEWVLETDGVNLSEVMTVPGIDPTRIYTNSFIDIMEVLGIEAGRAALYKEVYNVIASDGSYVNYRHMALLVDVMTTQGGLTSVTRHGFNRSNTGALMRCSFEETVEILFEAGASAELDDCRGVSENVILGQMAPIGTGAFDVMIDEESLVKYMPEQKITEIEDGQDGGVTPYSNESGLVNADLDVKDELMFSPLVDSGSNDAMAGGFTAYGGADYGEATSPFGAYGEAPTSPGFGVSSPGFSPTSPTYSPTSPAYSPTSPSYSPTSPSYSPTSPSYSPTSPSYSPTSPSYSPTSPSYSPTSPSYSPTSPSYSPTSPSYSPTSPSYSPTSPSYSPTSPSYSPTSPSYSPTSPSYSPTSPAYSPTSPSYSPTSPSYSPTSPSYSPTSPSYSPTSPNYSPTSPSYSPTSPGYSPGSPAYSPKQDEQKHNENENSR

Row | Binder | binding result
1 | B1 | binds
2 | B2 | binds
